Blank lines part the entries; values can stand above or below the binder they belong to.
Columns and labels:
[1] = target: human plasma kallikrein (pKal) (human, UniProt P03952 20-638); assay: cell-based or functional assay
[2] = target: cynomolgus monkey plasma kallikrein (pKal) (cynomolgus monkey); assay: cell-based or functional assay
cynomolgus monkey plasma kallikrein (pKal) (cynomolgus monkey), sequence (chain, as listed by the source): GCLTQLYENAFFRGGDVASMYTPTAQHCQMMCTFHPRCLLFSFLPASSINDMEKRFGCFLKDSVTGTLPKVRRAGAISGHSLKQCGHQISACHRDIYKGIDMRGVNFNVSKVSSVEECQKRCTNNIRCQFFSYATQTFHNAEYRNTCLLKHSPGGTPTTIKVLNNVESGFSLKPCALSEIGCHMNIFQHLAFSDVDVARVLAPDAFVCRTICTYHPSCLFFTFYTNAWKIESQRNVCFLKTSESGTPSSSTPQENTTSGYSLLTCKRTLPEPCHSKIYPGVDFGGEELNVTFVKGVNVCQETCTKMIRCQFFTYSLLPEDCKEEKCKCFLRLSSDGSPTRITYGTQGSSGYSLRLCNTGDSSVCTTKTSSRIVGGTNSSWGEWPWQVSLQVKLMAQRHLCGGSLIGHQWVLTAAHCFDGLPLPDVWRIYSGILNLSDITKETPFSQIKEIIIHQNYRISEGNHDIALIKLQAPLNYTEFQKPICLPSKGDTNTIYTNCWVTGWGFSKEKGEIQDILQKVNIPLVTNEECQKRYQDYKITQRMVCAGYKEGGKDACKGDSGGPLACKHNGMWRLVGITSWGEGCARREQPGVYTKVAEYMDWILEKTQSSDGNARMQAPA

human plasma kallikrein (pKal), sequence (P03952 20-638 limits assumed): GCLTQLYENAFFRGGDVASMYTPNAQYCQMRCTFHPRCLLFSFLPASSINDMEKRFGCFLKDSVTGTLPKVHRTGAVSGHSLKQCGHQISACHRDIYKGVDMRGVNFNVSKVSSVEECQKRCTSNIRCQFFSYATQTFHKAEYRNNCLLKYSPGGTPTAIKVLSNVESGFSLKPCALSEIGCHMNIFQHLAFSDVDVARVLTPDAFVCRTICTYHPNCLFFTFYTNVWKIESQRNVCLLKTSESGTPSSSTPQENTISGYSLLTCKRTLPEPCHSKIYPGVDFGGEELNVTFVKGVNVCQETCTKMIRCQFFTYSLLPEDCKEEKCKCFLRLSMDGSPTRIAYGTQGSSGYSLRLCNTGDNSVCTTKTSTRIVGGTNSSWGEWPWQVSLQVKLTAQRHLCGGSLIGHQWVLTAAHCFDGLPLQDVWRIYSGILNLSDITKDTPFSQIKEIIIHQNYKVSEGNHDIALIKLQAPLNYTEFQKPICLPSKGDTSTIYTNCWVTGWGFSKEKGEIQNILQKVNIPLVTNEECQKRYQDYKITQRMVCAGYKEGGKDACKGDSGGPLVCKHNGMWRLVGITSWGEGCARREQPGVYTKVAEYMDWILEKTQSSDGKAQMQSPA

IC50 (read off the curve) [1]: ~400 nM
B1: alpha 2 macroglobulin (α2M) (other, UniProt P01023 24-1474, looked up)
chain: SVSGKPQYMVLVPSLLHTETTEKGCVLLSYLNETVTVSASLESVRGNRSLFTDLEAENDVLHCVAFAVPKSSSNEEVMFLTVQVKGPTQEFKKRTTVMVKNEDSLVFVQTDKSIYKPGQTVKFRVVSMDENFHPLNELIPLVYIQDPKGNRIAQWQSFQLEGGLKQFSFPLSSEPFQGSYKVVVQKKSGGRTEHPFTVEEFVLPKFEVQVTVPKIITILEEEMNVSVCGLYTYGKPVPGHVTVSICRKYSDASDCHGEDSQAFCEKFSGQLNSHGCFYQQVKTKVFQLKRKEYEMKLHTEAQIQEEGTVVELTGRQSSEITRTITKLSFVKVDSHFRQGIPFFGQVRLVDGKGVPIPNKVIFIRGNEANYYSNATTDEHGLVQFSINTTNVMGTSLTVRVNYKDRSPCYGYQWVSEEHEEAHHTAYLVFSPSKSFVHLEPMSHELPCGHTQTVQAHYILNGGTLLGLKKLSFYYLIMAKGGIVRTGTHGLLVKQEDMKGHFSISIPVKSDIAPVARLLIYAVLPTGDVIGDSAKYDVENCLANKVDLSFSPSQSLPASHAHLRVTAAPQSVCALRAVDQSVLLMKPDAELSASSVYNLLPEKDLTGFPGPLNDQDNEDCINRHNVYINGITYTPVSSTNEKDMYSFLEDMGLKAFTNSKIRKPKMCPQLQQYEMHGPEGLRVGFYESDVMGRGHARLVHVEEPHTETVRKYFPETWIWDLVVVNSAGVAEVGVTVPDTITEWKAGAFCLSEDAGLGISSTASLRAFQPFFVELTMPYSVIRGEAFTLKATVLNYLPKCIRVSVQLEASPAFLAVPVEKEQAPHCICANGRQTVSWAVTPKSLGNVNFTVSAEALESQELCGTEVPSVPEHGRKDTVIKPLLVEPEGLEKETTFNSLLCPSGGEVSEELSLKLPPNVVEESARASVSVLGDILGSAMQNTQNLLQMPYGCGEQNMVLFAPNIYVLDYLNETQQLTPEIKSKAIGYLNTGYQRQLNYKHYDGSYSTFGERYGRNQGNTWLTAFVLKTFAQARAYIFIDEAHITQALIWLSQRQKDNGCFRSSGSLLNNAIKGGVEDEVTLSAYITIALLEIPLTVTHPVVRNALFCLESAWKTAQEGDHGSHVYTKALLAYAFALAGNQDKRKEVLKSLNEEAVKKDNSVHWERPQKPKAPVGHFYEPQAPSAEVEMTSYVLLAYLTAQPAPTSEDLTSATNIVKWITKQQNAQGGFSSTQDTVVALHALSKYGAATFTRTGKAAQVTIQSSGTFSSKFQVDNNNRLLLQQVSLPELPGEYSMKVTGEGCVYLQTSLKYNILPEKEEFPFALGVQTLPQTCDEPKAHTSFQISLSVSYTGSRSASNMAIVDVKMVSGFIPLKPTVKMLERSNHVSRTEVSSNHVLIYLDKVSNQTLSLFFTVLQDVPVRDLKPAIVKVYDYYETDEFAIAEYNAPCSKDLGNA

percent inhibition of pKal activity (Pro-Phe-Arg-AMC substrate) after ex vivo FXIIa activation of plasma of a dosed monkey, drug level ~265 nM [2]: 80% | % Reduction of one-chain HMWK (XIIa activated plasma, 9 nM DX2930; Protein Simple Western) [1]: 92.1% | % Reduction of one-chain HMWK (XIIa activated plasma, 27 nM DX2930; Protein Simple Western) [1]: 90.4% | % Reduction of one-chain HMWK (XIIa activated plasma, 80 nM DX2930; Protein Simple Western) [1]: 79% | % Reduction of one-chain HMWK (XIIa activated plasma, 240 nM DX2930; Protein Simple Western) [1]: 63.9% | % Reduction of one-chain HMWK (XIIa activated plasma, 480 nM DX2930; Protein Simple Western) [1]: 54.9% | Area of the one-chain HMWK peak (XIIa activated plasma, 9 nM DX2930; Protein Simple Western) [1]: 842 | Area of the one-chain HMWK peak (XIIa activated plasma, 27 nM DX2930; Protein Simple Western) [1]: 1030 | Area of the one-chain HMWK peak (XIIa activated plasma, 80 nM DX2930; Protein Simple Western) [1]: 2230 | Area of the one-chain HMWK peak (XIIa activated plasma, 240 nM DX2930; Protein Simple Western) [1]: 3840 | Area of the one-chain HMWK peak (XIIa activated plasma, 480 nM DX2930; Protein Simple Western) [1]: 4800 | maximal inhibition of pKal activity (PFR-AMC substrate), plasma of dose group 3 (1.0 mg/kg DX-2930) [1]: 19% | maximal inhibition of pKal activity (PFR-AMC substrate), plasma of dose group 4 (3.0 mg/kg DX-2930) [1]: 36%
B2: DX-2930 (antibody, INN chains, looked up, V domains shown)
VH: EVQLLESGGGLVQPGGSLRLSCAASGFTFSHYIMMWVRQAPGKGLEWVSGIYSSGGITVYADSVKGRFTISRDNSKNTLYLQMNSLRAEDTAVYYCAYRRIGVPRRDEFDIWGQGTMVTVSS
VL: DIQMTQSPSTLSASVGDRVTITCRASQSISSWLAWYQQKPGKAPKLLIYKASTLESGVPSRFSGSGSGTEFTLTISSLQPDDFATYYCQQYNTYWTFGQGTKVEIK

Reference: patent US20160252527A1 (Takeda / Millennium, published 2016)
